Assay results published in patent US20200339636A1.

Biological target: FZDs (endogenous Frizzled receptors of the cells used: HEK293T cells; CSPG4 KO HeLa cells)
Assay: cell-based or functional assay

In the case of “TcdB^GFE (full length TcdB with 1595VNFLQS replaced by GFE) (from UniProt P18177 1-2366)”, the toxicity on CSPG4 KO HeLa cells, cell-rounding assay (CR50), against WT TcdB is reported as 190 fold.
